This is an account of results in US20250222032A1 (published 2025).

The target of assay [1] is T1, RAS G12C peptide on HLA-A*11:01 (human).
T1 peptide: VVVGACGVGK
Description: cytokine release.

The target of assay [2] is T2, RAS G12D (KRAS, also HRAS and NRAS) peptide on HLA-A*11:01 (human).
T2 peptide: VVVGADGVGK
Briefly: cytokine release.

The target in assay [3] is T3, RAS G12D (KRAS, also HRAS and NRAS) peptide on HLA-A*11:01 (human).
T3 peptide: VVGADGVGK
Briefly: cytokine release.

Assay [4] addresses dextramers composed of HLA-A*11:01 complexes loaded with the RAS-WT peptide (human). Description: dual dextramer labeling of TCR T3 transduced T cells, flow cytometry. In general terms: A flow cytometer gives signals particle by particle.
The target in assay [5] is T4, RAS wild type (KRAS, also HRAS and NRAS) peptide on HLA-A*11:01 (human).
T4 peptide: VVVGAGGVGK
Briefly: multimer staining.

B1: TCR T3 (TCR, V domains shown)
Valpha: GQQLNQSPQSMFIQEGEDVSMNCTSSSIFNTWLWYKQDPGEGPVLLIALYKAGELTSNGRLTAQFGITRKDSFLNISASIPSDVGIYFCAGRREGAQKLVFGQGTRLTINP
Vbeta: GAGVSQSPRYKVAKRGQDVALRCDPISGHVSLFWYQQALGQGPEFLTYFQNEAQLDKSGLPSDRFFAERPEGSVSTLKIQRTQQEDSAVYLCASSSTLMGVNIQYFGAGTRLSVL
Regarding B1, the binding result in assay [1], in assay [2], in assay [3] and in assay [5] was “recognises” each time. Moreover, the fraction of the T cells that bound the dextramers in assay [4] stood at 60%.
